{"source": "patent US20050074863A1", "about": "“T-cell epitodes in carboxypeptidase g2” (priority 2001, published 2005)", "molecules": {"B1": {"name": "carboxypeptidase G2 (protein, UniProt P06621 23-415, looked up)", "Carboxypeptidase G2": "ALAQKRDNVLFQAATDEQPAVIKTLEKLVNIETGTGDAEGIAAAGNFLEAELKNLGFTVTRSKSAGLVVGDNIVGKIKGRGGKNLLLMSHMDTVYLKGILAKAPFRVEGDKAYGPGIADDKGGNAVILHTLKLLKEYGVRDYGTITVLFNTDEEKGSFGSRDLIQEEAKLADYVLSFEPTSAGDEKLSLGTSGIAYVQVNITGKASHAGAAPELGVNALVEASDLVLRTMNIDDKAKNLRFNWTIAKAGNVSNIIPASATLNADVRYARNEDFDAAMKTLEERAQQKKLPEADVKVIVTRGRPAFNAGEGGKKLVDKAVAYYKEAGGTLGVEERTGGGTDAAYAALSGKPVIESLGLPGFGYHSDKAEYVDISAIPRRLYMAARLIMDLGAGK", "modifications": "6xHis tag", "notes": "bacterial enzyme from Pseudomonas sp. strain RS-16, 390 residues, recombinant 6xHis tagged; positive control protein"}}, "system": "human T-cells", "test": "Human PBMC in vitro proliferation assay with wild-type or modified CPG2 protein", "format": "cell-based", "procedure": "A modified protein was prepared according to the method of examples 3-5. The modified protein contained multiple substitutions from the wild-type sequence. Positive control protein was wild-type CPG2.\nFor T cell proliferation assays 4×10^6 PBMC (per well) from healthy donors were incubated with unmodified and modified […] in 2 ml bulk cultures (in 24 well plates). Each donor culture was treated with modified and unmodified CPG2 at 5 and 50 μg/ml. In addition an untreated control bulk culture was maintained enabling stimulation indexes to be determined. At days 5, 6, 7 and 8 cells for each bulk culture were gently agitated and 50 μl samples removed in triplicate for determination of the proliferation index. The 50 μl sample aliquots were each transferred to 3 wells of a U-bottom 96 well plate. Fresh AIM V media (130 μl) was added to each of the 96 wells. Cells were pulsed (for 18-21 hours) with 1 μCi [^3H]Thymidine per well diluted in a total volume of 20 ul AIM V media. The total volume for each culture was 200 μl. CPM values were collected using a beta-plate reader and the stimulation index for each time point determined as per Example 2.\nThe SI was plotted for each time point and treatment."}
{"molecule": "B1", "values": [{"measurement": "proliferative response (stimulation index) to whole protein", "setting": "responsive donors #1 and #16, 5 and 50 μg/ml, days 5-8, 3H-thymidine", "result": "significant proliferative response"}, {"measurement": "time of peak proliferative response", "setting": "responsive donors, 5 and 50 μg/ml", "result": 7, "unit": "days"}]}
